Experiment: soluble on expression in E. coli; label from the status in PepcDB or PDB records

Sequence	soluble on expression in E. coli
MIDNVADGKIEADSKQAVNGGQLRDYTEQQMKIVLDDAKKYTDEQVKDRVSNGVNEAKSYTDMKFETLSYVVEDVRKAARQAVAMGLAVSNLRYYDIPGSLSLSFGTGIWRNQSAFAIGVGYTSEDGNIRSNLSITSADSHWDIGAGLRIKLN	not soluble
MNIDELIAIDVHTHAEEPCCGPRDDGYDEFQAGMAKYFKNPAGHKGMLPTVQETAAYYRERKIGCVIFPVDAERETGFRRYENEEVAKIAAENSDIMIPFASIDPAKGKAGAREARRLVREFGVKGFKFHPTMQGFYPNDRMAYPLYEAIAEEGAITLFHTGQTGVGAGLRGGMAMRLKFSNPIHLDDVAVDFPDMPIILAHPSFPWQEEALSVATHKPNVYIDMSGWSPKYFPPILVQYANSLLKHKMLFGSDWPAMTPERWLNDFANISIKDEVRPLILKENARRLLKLLEHHHHHH	not soluble
IDFHRGTQGEGRVEVELSQPGAVINVHSHGSRLLVEFMKAYLPPNLERRLNVLDFATPVQSVETVARDGNVQMIIEPKGRWEHTSWQTGTSFVVEIRPMAEAED	not soluble
MTVTAPNALNFECETGNYHTFCPISCVAWLYQKIEDSFFLVIGTKTCGYFLQNAMGVMIFAEPRYAMAELEEGDISAQLNDYEELKRLCLEIKRDRNPSVIVWIGTCTTEIIKMDLEGLAPKLEAEIGIPIVVARANGLDYAFTQGEDTVLAAMAARCPTSTAISDPEERNPIQRLLNFGKKKEEVQAQSSQYHPHPPLVLFGSLPDPVVTQLTLELKKQGIKVSGWLPAKRYTELPVIDEGYYVAGVNPFLSRTATTLIRRRKCQLITAPFPIGPDGTRTWIEQICATFGIQPQGLAEREAETWQKLSDYLELVRGKSVFFMGDNLLEISLARFLIRCGMRVLEIGIPYMDKRYQAAELALLSQTCAEMGHPLPTIVEKPDNYNQLQRIKALQPDLVITGMAHANPLEARGISTKWSVEFTFAQIHGFGNARDILELVTRPLRRNQALAGLGWQKLVAH	soluble
VHEGHRKRLKERFLREGLDSFEQHQVLELLLFFSIPRKDTNELAHTLLNRYGSLSGVFEADPKDLATTPGIGENSAILLSLIPHLSRRYLNDKWRDKPELNSSAKAGQYAISLFAGRNYEVFYVICLDAQNRVNYAELVHEGTINEAPVYPRIIVETALRHKANSVILAHNHPGGTLNPSKADIEATKRIKAALEAISIKVVDHIIVCGGQYVSFAEKGLLSG	soluble
MGHHHHHHSHMEETRAGRYIVRAGSGGQTEDTASGAESVLATLAAVRTRRRSVVCDGPPGSPTDSARHMSDLASLALTAEFGLGCLEAYVRINAGQVLPVVWPPGWNLVLQEIETDEDFKPEDVKAWSHYLCCQTRLAFVGRFVNEGVLSPDQQKKTAVCLISDEGYVFCYVREDTAVYYLARNLMEFARVGLRAVETLHCMRYLTSSLVKRYFRPLLRAWSLGLDTMARFIIRHHGQFMPLTYPPGTELRLCNLRCFENSVEGGHLLRNIKTAFGMRVLGLGTVSLKGENAPFPHLRWPVDLIPIVVAYTGAVYACDVRDDRYIRVGDNLNTFMCLGLNLLFENRRFSGHNGIYDRVPDCPKGRQHR	not soluble
PVSGTPSGITELDNVTTGGQPGELIIIAARPAMGKTTFAQLVAQSTLNKYPDASIQFYSQEMPADQLVQRFMSMRSRISLQSIRQATELTELAWSKIAEAMGYIMNNWKDRLLIDDEPSLPPYRLRTKVRRNTRLYGKPKAIIIDYIQLMRSTGKFENRNLELAEISSELKKLAKETGCPVYALSQLNRSLEQRANKRPVNSDL	not soluble
MIVVSGSQSQNLAFKVAKLLNTKLTRVEYKRFPDNEIYVRIVDEINDDEAVIINTQKNQNDAIVETILLCDALRDEGVKKITLVAPYLAYARQDKKFNPGEAISIRALAKIYSNIVDKLITINPHETHIKDFFTIPFIYGDAVPKLAEYVKDKLNDPIVLAPDKGALEFAKTASKILNAEYDYLEKTRLSPTEIQIAPKTLDAKDRDVFIVDDIISTGGTMATAVKLLKEQGAKKIIAACVHPVLIGDALNKLYSAGVEEVVGTDTYLSEVSKVSVAEVIVDLL	soluble
MARQHRLRAGRPVAAEACMSGGETGRTLRALFMSVSLGAGHDQAQQAVKQAFAERGVELLGAEHDSVEYLSTFERSFTVDLYEFELRYAPWLYRGFYWLTDQDQPWNIISRMFTWLGMGAFKDELRELRPEVVINSFWAPAAVCDTLRAQTGQRFLNCLIVTDYRAHLHWARRETDLLMVASEETRRQMLERGVRPEQVEVTGIPISPAFREVLAADRWALRAELFSEMSLRPGVPLLLLSGGGRGHYAAAADVLTELGNLGRAVQVLVPASRQGEGTETIGGATVHHLGFRRDLPRLLAASDLVVGKAGGLTVAEATALGVPLVIYAPIPGQEEHNADFLERHGAGLWARARHDVRPLVLRALDPAEHARLSAGARAVGIPDAADRVAGAILRRLGDGLGDELGDSRGPA	not soluble
MSLSITVLADIHLDERYIETGSQEVFCRENQDRPEAKYSLPGCDSSESLVDAALASLQKEGPYNVMVVLGDIGPHSSESPEMTQRAIKAIADKLRRLFINKPPEQEMIILPVIGNNDVFPTYAVPTEDGDPQLLFVADQFKDLMTTEGYRQFQRRGYYSVPLSKHRVTFLVINANYYSVRHRELGEDPADQFKWVENQMIEAKAKGYRVILISHIPFGVNVYDESEALHSQYTDRIRSILRRYASTVLACLYGHYHSAYPLVLSAGEEPLVPMFICPSIAPSNYNNPGYYVFHISPLHEVDYDHYALNIEAANMQHREMHNSTELASFDCLYRFSQRYRPWLGLRALPTAQNIAHLYEHMLNDDFVWYQVRAATTSMLSERRLDFLQMAVDKAFMDAYNLSNEGHHHHHH	soluble
MSKIEQIITEIEEYIDNCKFQPLSTSKIIVNKDEIDELLAELRLRTPDEIKKYQKIIANKDAILNDAKERAEAMVSEATAHINQLVSEHEIMQKAYEEANQIIEQAQAEAQGILDSATTEANDLRTRAMQYTDDILANVQSILSTGMDSFESAQNTMMTSLNSSLNVVVESRKELGGAEDEESVENGEDDNLSVDLL	not soluble
MGSDKIHHHHHHMKTRQEALDYGLSFPNTYQEAPFHDPNWQLIRVKDSKKVFLWTYERNGFINLNVKVSPAWRDFWRDAFPSVIPGWHQNKDNWNTIILDGSIPDDAIKNMISDSYDLVTYNPTRLIYEAVKRIPKGCVATYAQVAELAGNKKMCRAVGNALHKNPNPDEIPCYRVVNAKGELSGAFAFGGADEQANRLRADGIEVIDGRVDLDKYGIRIVDDVIYTKTTVEPLT	not soluble
MTITPATHAISINPATGEQLSVLPWAGADDIENALQLAAAGFRDWRETNIDYRAEKLRDIGKALRARSEEMAQMITREMGKPINQARAEVAKSANLCDWYAEHGPAMLKAEPTLVENQQAVIEYRPLGTILAIMPWNFPLWQVMRGAVPIILAGNGYLLKHAPNVMGCAQLIAQVFKDAGIPQGVYGWLNADNDGVSQMIKDSRIAAVTVTGSVRAGAAIGAQAGAALKKCVLELGGSDPFIVLNDADLELAVKAAVAGRYQNTGQVCAAAKRFIIEEGIASAFTERFVAAAAALKMGDPRDEENALGPMARFDLRDELHHQVEKTLAQGARLLLGGEKMAGAGNYYPPTVLANVTPEMTAFREEMFGPVAAITIAKDAEHALELANDSEFGLSATIFTTDETQARQMAARLECGGVFINGYCASDARVAFGGVKKSGFGRELSHFGLHEFCNIQTVWKDRI	soluble
MNKKILVVDDEESIVTLLQYNLERSGYDVITASDGEEALKKAETEKPDLIVLDVMLPKLDGIEVCKQLRQQKLMFPILMLTAKDEEFDKVLGLELGADDYMTKPFSPREVNARVKAILRRSEIRAPSSEMKNDEMEGQIVIGDLKILPDHYEAYFKESQLELTPKEFELLLYLGRHKGRVLTRDLLLSAVWNYDFAGDTRIVDVHISHLRDKIENNTKKPIYIKTIRGLGYKLEEPKMNE	soluble
IDENSFWIEGYFKETDLAGIAPNDRATVTLLMHDDVALEGKIKSIGFGIAKKDGTTGNDLLPTVNPNFQWIRLAQRIPVKVTLNEMPKDLQLRVGMTASIKIIKH	not soluble
GPLGSMKLLVVDDSSTMRRIIKNTLSRLGYEDVLEAEHGVEAWEKLDANADTKVLITDWNMPEMNGLDLVKKVRSDSRFKEIPIIMITTEGGKAEVITALKAGVNNYIVKPFTPQVLKEKLEVVLGTND	soluble
MAANKPKGQNSLALHKVIMVGSGGVGKSALTLQFMYDEFVEDYEPTKADSYRKKVVLDGEEVQIDILDTAGQEDYAAIRDNYFRSGEGFLCVFSITEMESFAATADFREQILRVKEDENVPFLLVGNKSDLEDKRQVSVEEAKNRAEQWNVNYVETSAKTRANVDKVFFDLMREIRARKMEDSKEKNGKKKRKSLAKRIRERCCIL	soluble
MVGDGIAKFIPEGFDAQKIPSFAIEKEPREQGALPADWVLVPEFSLTDGKANASLTVPEGTSIYGGGEVTGSLLRNGKTIKLWNTDSGAYGVDKGTRLYQSHPWMMGVRKDGTAFGILFDTTWKAELSSTDEKIELKSEGIPFRVFIIDRESPQAVIRGLSELTGTMPMIPRWALGYQQCRFSYSPDSRVIEIADTFRLKRIPCDVIWMDIDYMDGYRIFTFNPKSFPNPKAVNRDLHIRGFHSAWMIDPGAKVDPNYFVYKSGTENDVWVKTADGKNFHGDAWPGAAAFPDFTSPKVNKWWRNLYKDFLAQGVDGVWNDVNEPQINDTPNKTMPEDNLHRGGGKLPAGTHLQYHNVYGFLMVKASREGILDARPEKRPFILTRSNFLGGQRYAATWTGDNGSCWDHLKMSVPMSLTLGLSGQPFSGADIGGFLFNADADLFGNWIGFGAFYPFARGHACAGTNNKEPWVFGQKVEDASRIALERRYILLPYFYTLLHEASTNGMPIMRPVFFSDPKDLSLRAEEEAFLVGDNLLIIPAFANQPALPKGIWKELSLVEGDQNDKYQAKMKIRGGAIIPTGKIIQNTTENSLDPLTLLVCLDEQGKASGNMYWDAGDGWSYKKGDYSLLQFVAERNGDKVTVKLTKKTGKYNTENKDMAVIKIITDQGIRQASGNLVEGIEIRL	not soluble
MKGIEVENLKFSHNGREILHDINFEIDKGSFLIILGPNGAGKTTLLRCIAGILKYKGSIKVLGNDIKELSRIELAKLLAYVPQRIEPGFLRVFDFVLLGRKPYMGLNPGRKDLKAVEDALRLLGIQRLEDRIMKTLSGGELQKVAIARAIAQETPVILLDEPTNNLDPKSQIEVMEIIKDLVKRGKTVVTVMHDLTLALRFGEEFLFLKDGRSTGLLTREELEEKILSETYGVKIRVARVEGEVIPLVGL	soluble
AHHHHHHGSGMKYLIKLKYIKPAQLAVNREQKLAEFYPIFEDGTLGRVEAKARVFLPEYSDFAKGLGFEVKKRRMITEDDYAYLRAMVYGVVMGVLRNPGDWRRLEERVLEMEPIELRYWASKFRNAYWKYKNMRKLMFLARRFMEVEMI	not soluble
NQLLGMHQIEKEMTQYFGIQRCIVVAGDSDIQKKVLSDFGDVLTNTLNLLLPNGENTIAVMGGTTMAMVAENMGSLETEKRHNLFVPARGGIGEAVSVQANSISAVMANKTGGNYRALYVPEQLSRETYNSLLQEPSIQEVLTLISHANCVVHSIGRALHMAARRKMSDDEMVMLKQKNAVAESFGYFFDEEGKVVYKIPRIGLQLKNLQEIPYVVAIAGGKTKAKAIRAYMKNAPKQTWLITDEAAANEILKGVTL	not soluble
